Reference: patent publication US20250282870A1
Values joined by “and” are separate entries in the source; they are usually repeats but may differ in a detail not shown here. Equal entries are not always repeated.

Legend:
[1] = target: human CTLA4 expressed on Jurkat T cells (CTLA4 effector cells) (human) (UniProt P16410); experiment: cell-based or functional assay
[2] = target: FcγRII (CD32) expressed on Raji cells; experiment: cell-based or functional assay

L3D10 (BioLegend anti-CTLA4 antibody), sequence (heavy): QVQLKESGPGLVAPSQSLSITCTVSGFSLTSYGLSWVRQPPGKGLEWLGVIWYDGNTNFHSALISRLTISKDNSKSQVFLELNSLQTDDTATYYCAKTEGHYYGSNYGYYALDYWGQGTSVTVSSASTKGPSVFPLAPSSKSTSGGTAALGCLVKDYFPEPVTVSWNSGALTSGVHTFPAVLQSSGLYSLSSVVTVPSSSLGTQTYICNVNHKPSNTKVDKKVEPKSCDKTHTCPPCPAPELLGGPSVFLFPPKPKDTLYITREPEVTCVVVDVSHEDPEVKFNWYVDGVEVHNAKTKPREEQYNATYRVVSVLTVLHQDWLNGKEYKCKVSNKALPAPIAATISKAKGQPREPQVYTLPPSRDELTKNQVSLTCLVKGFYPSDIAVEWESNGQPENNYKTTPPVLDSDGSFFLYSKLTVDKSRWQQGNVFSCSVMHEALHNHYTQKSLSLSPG
L3D10 (BioLegend anti-CTLA4 antibody), sequence (light): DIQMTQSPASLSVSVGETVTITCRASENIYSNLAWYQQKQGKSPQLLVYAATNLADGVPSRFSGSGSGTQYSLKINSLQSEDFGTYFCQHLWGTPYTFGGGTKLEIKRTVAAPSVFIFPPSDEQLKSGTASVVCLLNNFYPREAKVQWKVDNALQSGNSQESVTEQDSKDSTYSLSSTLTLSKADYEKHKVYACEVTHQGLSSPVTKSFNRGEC
human CTLA4 expressed on Jurkat T cells (CTLA4 effector cells) (human), sequence (P16410 36-223): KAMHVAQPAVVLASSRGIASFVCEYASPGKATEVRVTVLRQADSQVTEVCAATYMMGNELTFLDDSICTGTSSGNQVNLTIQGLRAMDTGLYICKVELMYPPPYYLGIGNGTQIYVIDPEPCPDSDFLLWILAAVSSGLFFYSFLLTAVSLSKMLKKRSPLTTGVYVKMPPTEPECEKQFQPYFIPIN

Row | RLU ratio, Promega CTLA4 Blockade Bioassay (luciferase readout) [1] | half max activity concentration, CTLA4 Blockade Bioassay (luciferase or IL-2 readout) [1] | RLU ratio of the CTLA4 blockade assay with anti-CD32 antibody at 10 µg per ml [2] | activity in the CTLA4 blockade assay with anti-CD32 antibody [2] | Substance
1 | 10 and 15 | 50 nM | 50% |  | L3D10 (BioLegend anti-CTLA4 antibody)
2 |  |  | 50% | 50% | ipilimumab (Selleckchem, Cat. No. A2001) (antibody)
